Laboratory results: patent US20060024722A1

Target: oncofetal fibronectin (human) (UniProt P02751)
Experiment: lateral flow sandwich assay (FDC-6 latex conjugate / immobilised goat anti-fibronectin), TLiIQ reflectance reader

Chain of UniProt P02751 (P02751 32-2477): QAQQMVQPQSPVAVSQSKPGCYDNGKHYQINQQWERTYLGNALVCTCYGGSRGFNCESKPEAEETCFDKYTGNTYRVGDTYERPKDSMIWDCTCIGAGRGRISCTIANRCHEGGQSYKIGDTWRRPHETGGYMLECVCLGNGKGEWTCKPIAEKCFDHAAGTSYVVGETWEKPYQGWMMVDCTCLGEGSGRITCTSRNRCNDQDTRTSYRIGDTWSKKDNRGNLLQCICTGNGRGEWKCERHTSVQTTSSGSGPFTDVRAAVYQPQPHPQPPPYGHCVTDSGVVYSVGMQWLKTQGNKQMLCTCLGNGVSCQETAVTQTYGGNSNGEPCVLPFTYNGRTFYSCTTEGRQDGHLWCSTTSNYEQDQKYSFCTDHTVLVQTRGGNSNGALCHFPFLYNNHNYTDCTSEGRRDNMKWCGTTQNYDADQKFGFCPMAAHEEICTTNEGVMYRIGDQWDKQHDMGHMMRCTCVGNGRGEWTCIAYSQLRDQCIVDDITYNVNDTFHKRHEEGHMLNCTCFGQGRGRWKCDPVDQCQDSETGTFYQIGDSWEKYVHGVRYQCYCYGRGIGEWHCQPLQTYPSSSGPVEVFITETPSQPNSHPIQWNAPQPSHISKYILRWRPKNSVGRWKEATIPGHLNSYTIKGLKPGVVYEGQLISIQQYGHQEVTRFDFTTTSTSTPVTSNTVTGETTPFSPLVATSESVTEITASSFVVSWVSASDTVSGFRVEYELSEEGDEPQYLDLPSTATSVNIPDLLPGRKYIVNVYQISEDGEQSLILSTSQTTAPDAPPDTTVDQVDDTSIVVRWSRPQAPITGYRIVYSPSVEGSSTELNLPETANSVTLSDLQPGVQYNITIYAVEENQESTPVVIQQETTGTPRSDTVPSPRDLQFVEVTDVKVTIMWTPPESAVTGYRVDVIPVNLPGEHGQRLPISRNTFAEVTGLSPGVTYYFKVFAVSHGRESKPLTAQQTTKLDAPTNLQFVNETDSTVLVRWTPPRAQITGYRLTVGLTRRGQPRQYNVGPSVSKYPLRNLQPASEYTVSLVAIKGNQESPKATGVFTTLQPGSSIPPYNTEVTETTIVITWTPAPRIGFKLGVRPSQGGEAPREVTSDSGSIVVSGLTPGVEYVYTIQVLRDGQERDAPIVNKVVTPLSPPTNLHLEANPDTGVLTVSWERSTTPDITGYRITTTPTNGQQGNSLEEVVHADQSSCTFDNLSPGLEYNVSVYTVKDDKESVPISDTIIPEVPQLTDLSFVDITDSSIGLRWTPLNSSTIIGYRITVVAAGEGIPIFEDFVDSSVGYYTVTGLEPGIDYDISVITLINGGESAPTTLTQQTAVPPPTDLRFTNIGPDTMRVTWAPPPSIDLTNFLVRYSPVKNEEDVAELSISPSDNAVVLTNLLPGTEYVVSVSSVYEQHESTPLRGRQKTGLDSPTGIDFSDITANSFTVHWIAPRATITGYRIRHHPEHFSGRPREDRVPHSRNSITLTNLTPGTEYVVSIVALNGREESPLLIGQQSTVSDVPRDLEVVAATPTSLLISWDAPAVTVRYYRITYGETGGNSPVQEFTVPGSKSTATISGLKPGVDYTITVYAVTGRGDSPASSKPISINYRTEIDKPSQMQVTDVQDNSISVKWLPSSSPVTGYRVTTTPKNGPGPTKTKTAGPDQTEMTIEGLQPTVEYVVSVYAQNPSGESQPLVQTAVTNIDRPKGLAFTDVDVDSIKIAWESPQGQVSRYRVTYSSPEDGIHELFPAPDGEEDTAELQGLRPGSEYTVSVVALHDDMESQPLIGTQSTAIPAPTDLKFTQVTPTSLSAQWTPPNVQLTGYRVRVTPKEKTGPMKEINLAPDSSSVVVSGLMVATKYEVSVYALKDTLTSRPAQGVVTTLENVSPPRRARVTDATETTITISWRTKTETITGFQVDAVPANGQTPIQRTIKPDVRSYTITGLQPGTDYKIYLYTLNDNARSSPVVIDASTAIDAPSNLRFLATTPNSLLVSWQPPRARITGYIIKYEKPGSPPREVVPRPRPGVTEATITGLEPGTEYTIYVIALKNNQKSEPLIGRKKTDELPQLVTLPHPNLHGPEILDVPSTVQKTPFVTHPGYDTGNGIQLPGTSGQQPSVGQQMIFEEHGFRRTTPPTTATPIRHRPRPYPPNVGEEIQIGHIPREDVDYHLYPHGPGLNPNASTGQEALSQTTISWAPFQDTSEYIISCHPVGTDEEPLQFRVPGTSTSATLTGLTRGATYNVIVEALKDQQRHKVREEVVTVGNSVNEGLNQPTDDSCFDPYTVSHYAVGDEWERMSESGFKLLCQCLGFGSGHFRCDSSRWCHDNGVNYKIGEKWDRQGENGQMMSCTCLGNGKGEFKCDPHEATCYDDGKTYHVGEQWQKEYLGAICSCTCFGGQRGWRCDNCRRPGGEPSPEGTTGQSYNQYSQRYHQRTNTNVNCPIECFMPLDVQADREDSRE

Work on “monoclonal antibody FDC-6 produced by hybridoma ATCC HB 9018” yielded a reflectance signal at 50 ng/ml oncofetal fibronectin (reflectance signal) of 0.315.
